Data reported in PMC10786891, “Massively parallel profiling of RNA-targeting CRISPR-Cas13d”.

T1: EsCas13d, nuclease-dead (Eubacterium siraeum, UniProt B0MS50, R295A;H300A;R849A;H854A)
T1 sequence: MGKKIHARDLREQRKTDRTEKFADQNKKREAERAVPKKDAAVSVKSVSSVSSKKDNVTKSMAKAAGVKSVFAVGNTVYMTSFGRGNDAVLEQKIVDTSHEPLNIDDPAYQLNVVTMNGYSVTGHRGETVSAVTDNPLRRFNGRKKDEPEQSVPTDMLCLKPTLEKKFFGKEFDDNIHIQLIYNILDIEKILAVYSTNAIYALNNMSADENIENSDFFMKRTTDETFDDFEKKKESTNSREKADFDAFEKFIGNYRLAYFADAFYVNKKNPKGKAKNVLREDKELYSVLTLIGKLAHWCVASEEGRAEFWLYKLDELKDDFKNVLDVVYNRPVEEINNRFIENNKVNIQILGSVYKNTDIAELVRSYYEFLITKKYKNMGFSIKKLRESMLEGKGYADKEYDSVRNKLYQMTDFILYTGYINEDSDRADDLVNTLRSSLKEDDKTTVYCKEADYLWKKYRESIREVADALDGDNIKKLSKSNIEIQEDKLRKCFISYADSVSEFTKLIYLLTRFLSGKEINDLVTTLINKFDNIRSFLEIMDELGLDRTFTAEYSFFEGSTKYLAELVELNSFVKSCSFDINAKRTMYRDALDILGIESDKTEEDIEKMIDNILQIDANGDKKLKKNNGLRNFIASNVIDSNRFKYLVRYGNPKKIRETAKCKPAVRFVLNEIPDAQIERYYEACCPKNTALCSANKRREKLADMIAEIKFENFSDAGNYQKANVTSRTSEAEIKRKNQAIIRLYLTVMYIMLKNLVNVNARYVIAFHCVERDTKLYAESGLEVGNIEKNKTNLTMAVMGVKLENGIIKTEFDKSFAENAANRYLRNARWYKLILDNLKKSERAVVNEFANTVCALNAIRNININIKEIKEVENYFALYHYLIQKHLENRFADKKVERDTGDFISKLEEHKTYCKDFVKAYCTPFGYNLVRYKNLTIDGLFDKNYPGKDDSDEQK

B1: target 2 MT 5'PFS GAA 3'PFS CAG (mixed)
RNA 1: CACCCGUGCAAAAUUGCAGGGGUCUAAAACCUUCUCCAAAUUGUUUCAUCCU
RNA 2: GGGAAUGGAUCCACAUCUACGAAUUCGAAAGGAUGAAACAAUUUGGAGAAGCAGAGAUCGGAAGAGCACACGU
B2: target 2 MT 5'PFS CUU 3'PFS CAA (mixed)
RNA 1: CACCCGUGCAAAAUUGCAGGGGUCUAAAACCUUCUCCAAAUUGUUUCAUCCU
RNA 2: GGGAAUGGAUCCACAUCUACGAAUUCCUUAGGAUGAAACAAUUUGGAGAAGCAAAGAUCGGAAGAGCACACGU
B3: target 2 MT 5'PFS GCG 3'PFS CGA (mixed)
RNA 1: CACCCGUGCAAAAUUGCAGGGGUCUAAAACCUUCUCCAAAUUGUUUCAUCCU
RNA 2: GGGAAUGGAUCCACAUCUACGAAUUCGCGAGGAUGAAACAAUUUGGAGAAGCGAAGAUCGGAAGAGCACACGU
B4: target 2 MT 5'PFS ACU 3'PFS UUG (mixed)
RNA 1: CACCCGUGCAAAAUUGCAGGGGUCUAAAACCUUCUCCAAAUUGUUUCAUCCU
RNA 2: GGGAAUGGAUCCACAUCUACGAAUUCACUAGGAUGAAACAAUUUGGAGAAGUUGAGAUCGGAAGAGCACACGU
B5: target 2 MT 5'PFS AGC 3'PFS UCU (mixed)
RNA 1: CACCCGUGCAAAAUUGCAGGGGUCUAAAACCUUCUCCAAAUUGUUUCAUCCU
RNA 2: GGGAAUGGAUCCACAUCUACGAAUUCAGCAGGAUGAAACAAUUUGGAGAAGUCUAGAUCGGAAGAGCACACGU
B6: target 2 MT 5'PFS UUC 3'PFS CAC (mixed)
RNA 1: CACCCGUGCAAAAUUGCAGGGGUCUAAAACCUUCUCCAAAUUGUUUCAUCCU
RNA 2: GGGAAUGGAUCCACAUCUACGAAUUCUUCAGGAUGAAACAAUUUGGAGAAGCACAGAUCGGAAGAGCACACGU
B7: target 2 MT 5'PFS CUU 3'PFS CAU (mixed)
RNA 1: CACCCGUGCAAAAUUGCAGGGGUCUAAAACCUUCUCCAAAUUGUUUCAUCCU
RNA 2: GGGAAUGGAUCCACAUCUACGAAUUCCUUAGGAUGAAACAAUUUGGAGAAGCAUAGAUCGGAAGAGCACACGU
B8: target 2 MT 5'PFS UUC 3'PFS CAA (mixed)
RNA 1: CACCCGUGCAAAAUUGCAGGGGUCUAAAACCUUCUCCAAAUUGUUUCAUCCU
RNA 2: GGGAAUGGAUCCACAUCUACGAAUUCUUCAGGAUGAAACAAUUUGGAGAAGCAAAGAUCGGAAGAGCACACGU
B9: target 2 MT 5'PFS CAU 3'PFS AUC (mixed)
RNA 1: CACCCGUGCAAAAUUGCAGGGGUCUAAAACCUUCUCCAAAUUGUUUCAUCCU
RNA 2: GGGAAUGGAUCCACAUCUACGAAUUCCAUAGGAUGAAACAAUUUGGAGAAGAUCAGAUCGGAAGAGCACACGU
B10: target 2 MT 5'PFS CUU 3'PFS CAG (mixed)
RNA 1: CACCCGUGCAAAAUUGCAGGGGUCUAAAACCUUCUCCAAAUUGUUUCAUCCU
RNA 2: GGGAAUGGAUCCACAUCUACGAAUUCCUUAGGAUGAAACAAUUUGGAGAAGCAGAGAUCGGAAGAGCACACGU
B11: target 2 MT 5'PFS AGC 3'PFS UCC (mixed)
RNA 1: CACCCGUGCAAAAUUGCAGGGGUCUAAAACCUUCUCCAAAUUGUUUCAUCCU
RNA 2: GGGAAUGGAUCCACAUCUACGAAUUCAGCAGGAUGAAACAAUUUGGAGAAGUCCAGAUCGGAAGAGCACACGU
B12: target 2 MT 5'PFS CAU 3'PFS AUG (mixed)
RNA 1: CACCCGUGCAAAAUUGCAGGGGUCUAAAACCUUCUCCAAAUUGUUUCAUCCU
RNA 2: GGGAAUGGAUCCACAUCUACGAAUUCCAUAGGAUGAAACAAUUUGGAGAAGAUGAGAUCGGAAGAGCACACGU
B13: target 2 MT 5'PFS ACU 3'PFS UUC (mixed)
RNA 1: CACCCGUGCAAAAUUGCAGGGGUCUAAAACCUUCUCCAAAUUGUUUCAUCCU
RNA 2: GGGAAUGGAUCCACAUCUACGAAUUCACUAGGAUGAAACAAUUUGGAGAAGUUCAGAUCGGAAGAGCACACGU
B14: target 2 MT 5'PFS AGC 3'PFS UCG (mixed)
RNA 1: CACCCGUGCAAAAUUGCAGGGGUCUAAAACCUUCUCCAAAUUGUUUCAUCCU
RNA 2: GGGAAUGGAUCCACAUCUACGAAUUCAGCAGGAUGAAACAAUUUGGAGAAGUCGAGAUCGGAAGAGCACACGU
B15: target 2 MT 5'PFS CAU 3'PFS AUA (mixed)
RNA 1: CACCCGUGCAAAAUUGCAGGGGUCUAAAACCUUCUCCAAAUUGUUUCAUCCU
RNA 2: GGGAAUGGAUCCACAUCUACGAAUUCCAUAGGAUGAAACAAUUUGGAGAAGAUAAGAUCGGAAGAGCACACGU
B16: target 2 MT 5'PFS CUC 3'PFS UGU (mixed)
RNA 1: CACCCGUGCAAAAUUGCAGGGGUCUAAAACCUUCUCCAAAUUGUUUCAUCCU
RNA 2: GGGAAUGGAUCCACAUCUACGAAUUCCUCAGGAUGAAACAAUUUGGAGAAGUGUAGAUCGGAAGAGCACACGU
B17: target 2 MT 5'PFS UGC 3'PFS AGG (mixed)
RNA 1: CACCCGUGCAAAAUUGCAGGGGUCUAAAACCUUCUCCAAAUUGUUUCAUCCU
RNA 2: GGGAAUGGAUCCACAUCUACGAAUUCUGCAGGAUGAAACAAUUUGGAGAAGAGGAGAUCGGAAGAGCACACGU
B18: target 2 MT 5'PFS UUC 3'PFS CAG (mixed)
RNA 1: CACCCGUGCAAAAUUGCAGGGGUCUAAAACCUUCUCCAAAUUGUUUCAUCCU
RNA 2: GGGAAUGGAUCCACAUCUACGAAUUCUUCAGGAUGAAACAAUUUGGAGAAGCAGAGAUCGGAAGAGCACACGU
B19: target 2 MT 5'PFS UGC 3'PFS AGC (mixed)
RNA 1: CACCCGUGCAAAAUUGCAGGGGUCUAAAACCUUCUCCAAAUUGUUUCAUCCU
RNA 2: GGGAAUGGAUCCACAUCUACGAAUUCUGCAGGAUGAAACAAUUUGGAGAAGAGCAGAUCGGAAGAGCACACGU
B20: target 2 MT 5'PFS ACU 3'PFS UUU (mixed)
RNA 1: CACCCGUGCAAAAUUGCAGGGGUCUAAAACCUUCUCCAAAUUGUUUCAUCCU
RNA 2: GGGAAUGGAUCCACAUCUACGAAUUCACUAGGAUGAAACAAUUUGGAGAAGUUUAGAUCGGAAGAGCACACGU
B21: target 2 MT 5'PFS UGC 3'PFS AGA (mixed)
RNA 1: CACCCGUGCAAAAUUGCAGGGGUCUAAAACCUUCUCCAAAUUGUUUCAUCCU
RNA 2: GGGAAUGGAUCCACAUCUACGAAUUCUGCAGGAUGAAACAAUUUGGAGAAGAGAAGAUCGGAAGAGCACACGU
B22: target 2 MT 5'PFS CAG 3'PFS ACG (mixed)
RNA 1: CACCCGUGCAAAAUUGCAGGGGUCUAAAACCUUCUCCAAAUUGUUUCAUCCU
RNA 2: GGGAAUGGAUCCACAUCUACGAAUUCCAGAGGAUGAAACAAUUUGGAGAAGACGAGAUCGGAAGAGCACACGU
B23: target 2 MT 5'PFS AGC 3'PFS UCA (mixed)
RNA 1: CACCCGUGCAAAAUUGCAGGGGUCUAAAACCUUCUCCAAAUUGUUUCAUCCU
RNA 2: GGGAAUGGAUCCACAUCUACGAAUUCAGCAGGAUGAAACAAUUUGGAGAAGUCAAGAUCGGAAGAGCACACGU
B24: target 2 MT 5'PFS CUU 3'PFS CAC (mixed)
RNA 1: CACCCGUGCAAAAUUGCAGGGGUCUAAAACCUUCUCCAAAUUGUUUCAUCCU
RNA 2: GGGAAUGGAUCCACAUCUACGAAUUCCUUAGGAUGAAACAAUUUGGAGAAGCACAGAUCGGAAGAGCACACGU
B25: target 2 MT 5'PFS ACU 3'PFS UUA (mixed)
RNA 1: CACCCGUGCAAAAUUGCAGGGGUCUAAAACCUUCUCCAAAUUGUUUCAUCCU
RNA 2: GGGAAUGGAUCCACAUCUACGAAUUCACUAGGAUGAAACAAUUUGGAGAAGUUAAGAUCGGAAGAGCACACGU
B26: target 1 insG 3' of 10,insC 3' of 8 (mixed)
RNA 1: CACCCGUGCAAAAAUGCAGGGGUCUAAAACUGAGCGGAUAACCUCUCUAUGG
RNA 2: GGGAAUGGAUCCACAUCUACGAAUUCGUACCAUAGAGAGGUUGAUCCCGCUCACCGAGAUCGGAAGAGCACACGU
B27: target 1 U10C,G12C (mixed)
RNA 1: CACCCGUGCAAAAAUGCAGGGGUCUAAAACUGAGCGGAUAACCUCUCUAUGG
RNA 2: GGGAAUGGAUCCACAUCUACGAAUUCGUACCAUAGAGAGCUCAUCCGCUCACCGAGAUCGGAAGAGCACACGU
B28: target 1 G17C,A18G (mixed)
RNA 1: CACCCGUGCAAAAAUGCAGGGGUCUAAAACUGAGCGGAUAACCUCUCUAUGG
RNA 2: GGGAAUGGAUCCACAUCUACGAAUUCGUACCAUGCAGAGGUUAUCCGCUCACCGAGAUCGGAAGAGCACACGU

These binders were tested against T1, EsCas13d, nuclease-dead (assay: crRNA (strand 1, pre-loaded); Mg2+; 40 mM Tris-HCl pH 7.5, 150 mM NaCl, 6 mM MgCl2, 1 mM DTT, 0.1% Tween-20, 0.2 mg/ml BSA; 25 C; 10 min per concentration, then washed). Details: tags: His6-TwinStrep-SUMO cleaved; N-terminal SNAP kept (SNAP-Surface 488); label: 3' end held by stalled T7 RNA polymerase.
In the case of B1, the Kd is reported as 6.6 ± 0.6 nM. Work on B2 yielded a Kd of 2.9 ± 0.4 nM. For B3, the Kd was 30 ± 12 nM. B4 showed a Kd of 7 ± 1 nM. In the case of B5, the Kd is reported as 16.1 ± 2.8 nM. For B6, the Kd was 13 ± 4 nM. B7 showed a Kd of 4.1 ± 0.6 nM. With B8 the Kd was 30 ± 6 nM. Work on B9 yielded a Kd of 3.3 ± 0.5 nM. In the case of B10, the Kd is reported as 3.75 ± 0.3 nM. For B11, the Kd was 23 ± 4 nM. B12 was tested, and the Kd was 4 ± 0.7 nM. B13 was tested, and the Kd was 7.1 ± 2 nM. B14 showed a Kd of 14.3 ± 3.2 nM. B15 was tested, and the Kd was 3.31 ± 0.27 nM. In the case of B16, the Kd is reported as 2.23 ± 0.19 nM. Binder B17 has a Kd of roughly 60 nM. Binder B18 has a Kd of 6.5 ± 1.4 nM. With B19 the Kd was 19.7 ± 1.9 nM. B20 gave a Kd of 6.4 ± 0.8 nM. Work on B21 yielded a Kd of 26 ± 9 nM. B22 showed a Kd of 5.8 ± 2.8 nM. Work on B23 yielded a Kd of 27 ± 10 nM. Binder B24 has a Kd of 3.41 ± 0.28 nM. Binder B25 has a Kd of 9.4 ± 2.2 nM. In the case of B26, the Kd is reported as 27.8 ± 1.9 nM. B27 was tested, and the Kd was 71 ± 27 nM. With B28 the Kd was roughly 90 nM.
